{"source": "patent US20240190950A1", "about": "“METHOD OF TREATING DISEASES USING GREMLIN1 ANTAGONISTS” (SHANGHAI JIAO TONG UNIVERSITY, priority 2021, published 2024)", "key": {"[1]": {"system": "LNCaP cells", "assay": "GREM1-promoted PCa cell proliferation and sphere formation with FGFR1/MEK inhibitors or BMP4", "type": "cell-based, human", "description": "(§1) MAPK signaling can be activated through many membrane receptors besides FGFR. To test whether the activation of MAPK pathway by GREM1 was via FGFR, we constructed a FGFR1 knockout LNCaP subline by the CRISPR/Cas9 method. […] To further test whether the tumor promoting effect of GREM1 was through FGFR, we utilized small molecule inhibitors of FGFR or EGFR."}, "[2]": {"system": "FGFR1/MEK/ERK signaling pathway", "assay": "FGFR1/MEK/ERK phosphorylation in PCa cell lines (immunoblotting)", "type": "cell-based, human", "description": "In order to test whether Gremlin1 promoted the FGFR-MAPK signaling, we first performed analysis of the expression levels of the four FGFRs in CRPC patients. […] We treated LNCaP and PC3 with GREM1 in different concentrations (1 ng/ml, 10 ng/ml, 100 ng/ml) and examined phosphorylation levels of FGFR1, MEK and ERK.\nas §1\n14E3 was tested to target GREM1 in human PCa."}, "[3]": {"molecular_target": "FGFR1 (Homo sapiens, UniProt P11362)", "sequence (P11362 3-822 limits assumed)": "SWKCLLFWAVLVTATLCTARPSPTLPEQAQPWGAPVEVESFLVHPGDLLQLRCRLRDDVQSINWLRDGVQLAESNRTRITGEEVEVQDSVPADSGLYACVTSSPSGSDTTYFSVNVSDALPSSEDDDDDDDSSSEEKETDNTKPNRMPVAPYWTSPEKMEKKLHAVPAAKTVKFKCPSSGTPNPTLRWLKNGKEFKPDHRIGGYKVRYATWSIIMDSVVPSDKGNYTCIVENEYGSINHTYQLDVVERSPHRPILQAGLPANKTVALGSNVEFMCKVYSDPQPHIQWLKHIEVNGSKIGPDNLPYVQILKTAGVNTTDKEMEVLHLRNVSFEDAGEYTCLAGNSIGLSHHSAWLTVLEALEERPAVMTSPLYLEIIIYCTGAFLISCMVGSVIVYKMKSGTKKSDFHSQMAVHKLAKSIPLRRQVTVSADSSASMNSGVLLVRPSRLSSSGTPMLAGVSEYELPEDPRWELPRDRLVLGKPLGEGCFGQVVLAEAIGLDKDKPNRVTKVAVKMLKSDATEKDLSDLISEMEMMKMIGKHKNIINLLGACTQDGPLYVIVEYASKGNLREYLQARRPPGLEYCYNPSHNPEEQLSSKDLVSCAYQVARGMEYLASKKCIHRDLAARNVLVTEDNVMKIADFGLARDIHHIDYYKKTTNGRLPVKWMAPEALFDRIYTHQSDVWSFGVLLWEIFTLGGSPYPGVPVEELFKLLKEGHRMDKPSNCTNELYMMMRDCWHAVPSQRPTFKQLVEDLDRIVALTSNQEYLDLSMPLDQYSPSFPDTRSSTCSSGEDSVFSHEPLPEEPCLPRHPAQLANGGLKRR", "assay": "ELISA binding of DAN family proteins to FGFR1"}, "[4]": {"system": "PC-3 cells", "assay": "Scratch migration assay of PC-3 cells", "type": "cell-based, human", "conditions": "1 μg/ml Gremlin, 3 days", "description": "PC-3 cells at log-growth phase were harvested and re-suspended in cell culture medium (DMEM medium supplied with 10% FBS). Cells were non-treated or treated with 1 μg/ml Gremlin or 10 μg/ml 14E3 or 10 μg/ml control mIgG2a for 3 days. Then cells were planted at 10^5 cells/well in 6-well cell culture plate. After cells reached 100% coverage of the bottom of wells, the medium was changed to serum free medium. Each well was made with one scratch using 200 μl-tip. The migration rate of cells were analyzed by calculating the area of cells growing on the scratch using Image J software."}, "[5]": {"system": "PC3 cells", "assay": "Sphere formation, proliferation and apoptosis of PC3 cells", "type": "cell-based, human", "conditions": "100 ng/ml GREM1 protein in culture medium", "description": "Metastatic prostate cancer is a devastating disease and most cancers progress upon serial treatments with either androgen receptor antagonist or chemotherapy. One of the key cell types resistant to these treatments are cells with stem cells like property which has the capability of forming tumor spheres in suspension culture. To explore the role of GREM1 in the progression of CRPC, we utilized AR independent CRPC cell line PC3, as well as the AR dependent PCa cell line LNCaP and LAPC4. We generated cell sublines with loss or gain of GREM1 expression (FIGS. 3A, 4A and 5A).\n14E3 was tested to target GREM1 in human PCa. The affinity and specificity of this antibody to hGREM1 was verified by ELISA (FIG. 12A). […] This antibody potentiated the anti-tumor effect of Enzalutamide in AR dependent LNCaP cells (FIG. 12B, 12C, 10K, 10L)."}, "[6]": {"system": "LNCaP-PSA cells", "assay": "LNCaP-PSA reporter cell assay (PSA-low population, flow cytometry)", "type": "cell-based, human", "conditions": "dose dependent; day 7", "description": "In order to assess the role of gremlin1 in modulating tumor prostate cell growth, we tested the antibodies provided herein in an assay involving prostate cancer cell LNCaP. This cell line was transfected with a PSA promoter driven GFP expression lentivirus plasmid. PSA is known as a differentiated marker of prostate cell and prostate cancer cells with low level of PSA represent poorly differentiated or undifferentiated prostate cancer cells. These cells usually have stem cell like property and have more aggressive growth property. The LNCaP reporter cell assay is briefly described below.\nLNCaP-PSA cells were plated in 24-well plates at 10000/well in RPMI 1640/10% FBS (GIBCO), 1% P/S (complete media) and incubated at 37° ° C. and 5% CO2 overnight. The next day, remove media, 1 ug/ml human gremlin (ACRO) or human gremlin with serially diluted antibodies were added to the cells. Change medium every three days. On day 7, remove media from the wells, wash with PBS twice, run flow cytometer (Bechman) using FITC channel."}}}
{"molecule": "BMP4: BMP ligand added to cells (protein, UniProt P12644 293-408, looked up) Bone morphogenetic protein 4: SPKHHSQRARKKNKNCRRHSLYVDFSDVGWNDWIVAPPGYQAFYCHGDCPFPLADHLNSTNHAIVQTLVNSVNSSIPKACCVPTELSAISMLYLDEYDKVVLKNYQEMVVEGCGCR", "values": [{"measurement": "proliferation promoting role of GREM1", "setting": "[1]", "result": "not affected"}, {"measurement": "sphere-formation promoting role of GREM1", "setting": "[1]", "result": "not affected"}, {"measurement": "phosphorylation levels of FGFR1, MEK1/2 and ERK1/2 following GREM1 stimulation on addition of BMP4", "setting": "[2]; BMP4 20 ng/ml, PC3 and LNCaP-resistance cells", "result": "did not alter"}]}
{"molecule": "GREM1: gremlin1 protein, secreted BMP antagonist of the DAN family, added exogenously or immobilized (protein) KKKGSQGAIPPPDKAQHNDSEQTQSPQQPGSRNRGRGQGRGTAMPGEEVLESSQEALHVTERKYLKRDWCKTQPLKQTIHEEGCNSRTIINRFCYGQCNSFYIPRHIRKEEGSFQSCSFCKPKKFTTMMVTLNCPELQPPTKKKRVTRVKQCRCISIDLD", "values": [{"measurement": "binding to FGFR1", "setting": "[3]", "result": "binds"}, {"measurement": "cell migration of prostate cancer cells", "setting": "[4]", "result": "accelerated"}, {"measurement": "cell proliferation", "setting": "[5]", "result": "significant elevation"}, {"measurement": "sphere formation", "setting": "[5]", "result": "significant elevation"}, {"measurement": "percentage of the PSA-low LNCaP population", "setting": "[6]", "result": "increased"}, {"measurement": "time MAPK activation was maintained at a high level", "setting": "[2]; Gremlin1 100 ng/ml, PC3 and LNCaP cells", "result": "up to 1 hour"}, {"measurement": "p-FGFR1, p-MEK1/2 and p-ERK1/2 levels", "setting": "[2]; LNCaP and PC3, 1 ng/ml, 10 ng/ml, 100 ng/ml, dose dependent", "result": "increase"}]}
